Key:
transthyretin (TTR) = target: T1, transthyretin (TTR) (Homo sapiens, UniProt P02766); experiment: Transthyretin fibrillation ThT assay; format: biochemical; settings: 1:1 ratio
T1 construct: purchased Sigma-Aldrich
Protocol: The effect of the five αB crystallin peptides ST, DR, HG, LT, and ER on TTR fibrillation was measured using the ThT fluorescence assay (FIG. 26). The formation and inhibition of TTR fibrils was qualitatively verified by fluorescence and bright-field microscopy. The concentration of the peptides was varied relative to TTR to establish a concentration curve. In addition, the effect of a control neuropeptide (AT1) with no TTR fibril inhibition activity was measured and compared to the effect of the αB crystallin peptides on TTR fibril formation. The ThT fluorescence of 16 μM TTR alone incubated at 37° C. for 4 hrs, increased from ˜15,000 to ˜45,000 RFU. Addition of 3.2 μM αB crystallin peptides, ST, DR, LT, and HG decreased the ThT fluorescence of TTR by 15-70%. In contrast, 3.2 μM ER had no effect on TTR fibril formation. Increasing the concentration of the ER peptide to 16 μM decreased the ThT fluorescence of TTR by 60%. The negative control peptide AT1 had no effect on TTR fibrillation even at a concentration as high as 160 μM. All five αB crystallin peptides inhibited TTR fibrillation at sub-stoichometric and stoichometric concentrations (3.2 μM and 16 μM).
The Thioflavin T (ThT) fluorescence of TTR in the presence of varying concentrations of αB crystallin peptides and controls was measured. […] When the concentration of the peptides was increased to 16 μM (1:1::peptide:TTR), the αB crystallin peptides ST, DR, HG, LT and ER decreased the ThT fluorescence by 8-72%. When the concentration of the peptides was increased further to 80 μM ([…]), all of the five αB crystallin peptides ST, DR, HG, LT, and ER decreased the ThT fluorescence by 40-70%. […] The formation and inhibition of TTR fibrils was verified microscopically.
Transthyretin fibrillation ThT assays were performed as described previously. Hurshman et al., Biochemistry 43:7365-81, 2004; O'Nuallain and Wetzel, Proc Natl Acad Sci USA 99:1485-90, 2002. Peptides were dissolved to 2 mM in 0.25% DMSO and diluted accordingly, while TTR was dissolved in 200 mM KCl, 2 mM EDTA, 5 mM PBS, 200 mM sodium acetate, pH 4.4. For the 5::peptide:TTR assay, 10 μL of 160 μM peptide was mixed with 10 μL of 32 μM TTR, and 1 μL of 1 mM ThT. For the 1:1::peptide:TTR assay, 10 μL of 32 μM peptide was mixed with 10 μL of 32 μM TTR and 1 μL of 1 mM ThT. For the 1:5::peptide:TTR assay, 10 μL of 6.4 μM peptide was mixed with 10 μL of 32 μM TTR and 1 μL of 1 mM ThT. ThT fluorescence was measured using a Perkin Elmer Victor^3 V plate reader. Assays were performed in 384-well fluorescence plates in duplicates or triplicates. Samples were incubated at 37° C. ThT fluorescence was measured continuously for 150 minutes. The effect of the peptides and APS was calculated as percentage fibril formation relative to TTR alone (100%) at the end of 150 minutes.

[1] = target: T2, porcine citrate synthase (CS) (Sus scrofa, UniProt P00889); experiment: αB crystallin protein pin array with citrate synthase; format: binding; settings: CS as target protein in the pin array
T2 construct: purchased Roche Diagnostics, IN 103 381
T2 sequence (P00889 28-464): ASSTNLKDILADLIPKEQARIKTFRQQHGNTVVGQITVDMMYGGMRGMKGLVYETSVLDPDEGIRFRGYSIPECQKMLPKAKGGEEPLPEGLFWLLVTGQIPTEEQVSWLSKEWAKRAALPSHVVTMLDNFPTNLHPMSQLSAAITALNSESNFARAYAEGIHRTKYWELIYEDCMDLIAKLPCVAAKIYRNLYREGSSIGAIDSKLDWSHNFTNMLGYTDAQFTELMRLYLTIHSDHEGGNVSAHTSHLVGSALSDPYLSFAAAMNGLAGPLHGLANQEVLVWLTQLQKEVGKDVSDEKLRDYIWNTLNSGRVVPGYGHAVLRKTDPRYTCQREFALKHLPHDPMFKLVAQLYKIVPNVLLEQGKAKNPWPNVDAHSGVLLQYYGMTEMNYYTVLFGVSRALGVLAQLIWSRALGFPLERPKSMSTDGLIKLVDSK
Text: (§1) Synthesis of Pins, binding and detection of peptides binding to ligand proteins. The αB crystallin protein pin array was used to measure the interaction between peptides and chaperone target proteins including bovine βH crystallin, human γD crystallin, equine alcohol dehydrogenase (ADH) and porcine citrate synthase (CS) as described (FIG. 12). Ghosh and Clark, Protein Sci 14: 684-95, 2005.
(§2) Refer to the methods section for detailed protocols. The absorbance corresponding to the blue coloration in each well was measured at λ=450 nm and plotted against the amino acid sequence of the corresponding peptide in that well (FIGS. 13 and 14). Wells containing peptides that have strong interactions with target proteins are dark blue and wells containing peptides that have weak or no interaction with target proteins are light blue or clear.
(§3) The purity of the target proteins used in the pin array assays, bovine βH crystallin, human γD crystallin, equine alcohol dehydrogenase (ADH) and porcine citrate synthase (CS) were determined to be >90% by SDS-PAGE. In addition, primary antibodies for each target protein were specific to that target protein and consequently contaminating proteins that may bind to the peptides will not be detected. Eighty-four sequential and overlapping peptide fragments corresponding to residues 1-175 of human αB crystallin were synthesized employing a simultaneous peptide synthesis strategy developed by Geysen, called Multipin Peptide Synthesis (Mimotopes, San Diego, Calif.). Geysen, Southeast Asian J Trop Med Public Health 21: 523-33, 1990; Chin et al., J Org Chem 62: 538-539, 1997. Peptides were immobilized on derivatized polyethylene pins arranged in a microtiter ELISA plate format. Each peptide was eight amino acids in length and consecutive peptides were offset by two amino acids. All peptides were bound covalently to the surface of the plastic pins. The first peptide was 1MDIAIHHP8 and the last peptide was 168PAVTAAPK175 for human αB crystallin.
(§4) Ghosh and Clark, Protein Sci 14: 684-95, 2005. […] The intensity of the blue color in the wells was measured at 450 nm using an ELISA plate-reader (BioTek, Winooski, Vt.). The intensity of the blue color (plotted on the X-axis) was a measure of the interaction between αB crystallin peptides (plotted on the Y-axis) and target proteins. To measure the effect of temperature on the interactions between interactive peptides and the target proteins, the target proteins were heated in a water-bath at 45° C. for fifteen minutes prior to use. Pin arrays are unable to differentiate between monomers, dimers or oligomers of target proteins that exist in solution. Instead, pin arrays are very sensitive detectors of interactions between individual peptides and the entire population (monomers, dimers or oligomers) of specific target proteins that may exist in solution under specific conditions. Each target protein was assayed two to five times. A single pin array was used for all experiments and no change in interactions was observed after more than thirty repetitions. The last three peptides of the protein pin array, 163REEKPAVT170, 165EKPAVTAA172, 167PAVTAAPK174, correspond to the epitope (163REEKPAVTAAPKK175) recognized by the primary antibody for human αB crystallin. A positive reaction is observed for these three peptides in the absence of human αB crystallin as the ligand due to direct binding of the anti-human αB crystallin antibody to these three peptides. The loss of efficiency for the pin array was measured using this assay. The loss of efficiency for the pin array was determined to be <5% by after more than 30 assays.
The pattern of absorbance at λ=450 nm when αB crystallin peptides were assayed with unheated and pre-heated CS was similar to the absorbance pattern obtained with unheated and pre-heated βH/γD crystallin and ADH (FIG. 18). […]

[2] = target: T3, equine alcohol dehydrogenase (ADH) (Equus caballus, UniProt P00327); experiment: αB crystallin protein pin array with alcohol dehydrogenase; format: binding; settings: ADH as ligand in the pin array
T3 construct: purchased Sigma-Aldrich, MO 05646
T3 sequence (P00327 whole entry): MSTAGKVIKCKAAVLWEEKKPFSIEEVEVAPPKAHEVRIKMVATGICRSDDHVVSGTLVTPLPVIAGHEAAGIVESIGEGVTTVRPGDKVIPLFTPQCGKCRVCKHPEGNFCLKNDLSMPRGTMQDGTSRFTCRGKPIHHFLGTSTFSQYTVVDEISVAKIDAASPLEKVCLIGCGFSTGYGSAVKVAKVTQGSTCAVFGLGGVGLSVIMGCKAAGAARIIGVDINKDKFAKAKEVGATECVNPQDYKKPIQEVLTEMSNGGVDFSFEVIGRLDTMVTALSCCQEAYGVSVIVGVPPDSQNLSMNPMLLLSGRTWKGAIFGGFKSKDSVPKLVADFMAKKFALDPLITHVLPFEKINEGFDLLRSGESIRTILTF
Text: as §1, §2, §3, §4
The pattern of absorbance at k=450 nm when αB crystallin peptides were assayed with unheated and pre-heated ADH was similar to the absorbance pattern obtained with unheated and pre-heated βH/γD crystallin (FIG. 17). […]

beta amyloid = beta amyloid (Homo sapiens, UniProt P05067); experiment: αB crystallin protein pin array, binding of beta amyloid; settings: immobilized 8-mer peptide; absorption at 450 nm
Text: αB Crystallin peptides that bind the target protein beta-amyloid were identified by screening an αB crystallin protein pin array, which provides a systematic method for evaluating interactions between peptides corresponding to residues 1-175 of human αB crystallin and selected target proteins in a parallel and simultaneous manner.
Peptides were synthesized on derivatized polyethylene pins arranged in a microtiter plate format. Each peptide was 8 amino acids in length and consecutive peptides were offset by 2 amino acids. All peptides were covalently bonded to the surface plastic pins. The first immobilized peptide was 1MDIAIHHP8 and the last peptide was 168PAVTAAPK175 for the human αB crystallin.
After synthesis, the pins were pre-coated at room temperature with 2% Bovine Serum Albumin (BSA), 0.1% Tween-20 and 0.1% Sodium azide in 10 mM phosphate buffered saline pH 7.2 (PBS) for 1 hr, and washed three times for 10 mins each with 10 mM PBS. To screen for binding to the peptides, fixed concentrations of the target protein beta amyloid was dissolved in 10 mM PBS, containing 0.05% Tween-20, added to each well and incubated for 1 hr at room temperature. The pin array was washed three times for 10 mins each with 10 mM PBS, containing 0.05% Tween-20. Monoclonal or polyclonal primary antibodies for the target protein beta amyloid was diluted into PBS buffer, added to each well and incubated for 1 hr at room temperature. Subsequently, the pin array was washed three times for 10 mins each with 10 mM PBS containing 0.05% Tween-20. Anti-rabbit horse-radish peroxidase conjugate secondary antibodies was diluted into PBS buffer, added to each well and incubated for 1 hr at room temperature. The pin array was washed three times for 10 mins each with 10 mM PBS containing 0.05% Tween-20. A chromogenic substrate of horse-radish peroxidase 3,3′,5,5′-Tetramethylbenzidine (TMB) (Pharmingen, San Diego, Calif.) which is colorless was added, and the reaction was carried out for 45 min.
The reaction was stopped by adding 6N sulfuric acid, which changes the color from blue to yellow. The absorption at 450 nm was measured by an ELISA reader (BioTek, Winooski, Vt.).
The pin array was regenerated by sonication in a water bath (VWR Aquasonic, West Chester, Pa.) with 100 mM PBS, containing 1% Sodium dodecyl sulfate (SDS) and 0.1% 2-Mercaptoethanol@60° C. for 10 mins. Next, the pin array was rinsed three times in deionized water, preheated to 60° C. for 30 secs each time, and shaken in water preheated at 60° C. for 30 min. The pin array was then washed with methanol at 60° C. for 15 secs and air-dried and stored @−20° C. for future use. Each target protein was assayed 2-5 times against the human αB crystallin protein pin array peptides to verify the reproducibility of the results. Peptides numbered 5, 7, 8, 9, 13, 19, 22, 23, 24, 27, 35, 38, 45, 51, 52, 56, 57, 61, 66, 71, 72, and 79 in Table 2 reproducibly tested positive in the protein pin assay.

[3] = as provided by manufacturer (Mimotopes); cited from earlier work
human γD crystallin = target: T4, human γD crystallin (Homo sapiens, UniProt P07320); experiment: αB crystallin protein pin array with γD crystallin; format: binding; settings: unheated γD crystallin; similar maxima pre-heated 45° C.
T4 construct: made in house
T4 sequence (P07320 1-174): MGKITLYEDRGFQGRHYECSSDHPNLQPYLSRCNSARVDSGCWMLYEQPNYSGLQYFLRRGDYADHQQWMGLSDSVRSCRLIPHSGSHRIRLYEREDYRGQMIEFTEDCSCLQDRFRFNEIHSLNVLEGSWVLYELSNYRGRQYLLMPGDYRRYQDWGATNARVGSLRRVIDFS
Text: as §1, §2, §3, §4
When βH crystallin was replaced with γD crystallin, a native protein constituent of lens cytoplasm from the same gene family as the β crystallins, as the ligand in the pin array, twelve interactive sequences were identified (FIG. 14: striped bars). […]

| Substance | inhibition of TTR fibrils, HG derived peptides (transthyretin (TTR)) | absorbance at 450 nm, interaction with CS [1] | absorbance at 450 nm, interaction with ADH [2] | binding of beta amyloid in the protein pin assay (beta amyloid) | Hydrophobicity [3] | absorbance at 450 nm, interaction with γD crystallin (human γD crystallin) |
| --- | --- | --- | --- | --- | --- | --- |
| HEER | ~100% |  |  |  |  |  |
| SLSPFYLR [Peptide 22] |  | absorbance maxima | Maximum absorbances | positive | 0.72 | maximum absorbances |

Source: patent US20070185028A1, “Compositions and methods for treatment of protein misfolding and protein aggregation diseases” (priority 2004, published 2007)
